Test [1] deals with full-length beta-Catenin (Uniprot ID P35222) (Homo sapiens (Human)) (UniProt P35222). Kind of test: fluorescence polarization competition; full-length beta-catenin + 5FAM-TCF4(10-53) probe; peptide titrated.
Target sequence in this assay (P35222 2-781 limits assumed): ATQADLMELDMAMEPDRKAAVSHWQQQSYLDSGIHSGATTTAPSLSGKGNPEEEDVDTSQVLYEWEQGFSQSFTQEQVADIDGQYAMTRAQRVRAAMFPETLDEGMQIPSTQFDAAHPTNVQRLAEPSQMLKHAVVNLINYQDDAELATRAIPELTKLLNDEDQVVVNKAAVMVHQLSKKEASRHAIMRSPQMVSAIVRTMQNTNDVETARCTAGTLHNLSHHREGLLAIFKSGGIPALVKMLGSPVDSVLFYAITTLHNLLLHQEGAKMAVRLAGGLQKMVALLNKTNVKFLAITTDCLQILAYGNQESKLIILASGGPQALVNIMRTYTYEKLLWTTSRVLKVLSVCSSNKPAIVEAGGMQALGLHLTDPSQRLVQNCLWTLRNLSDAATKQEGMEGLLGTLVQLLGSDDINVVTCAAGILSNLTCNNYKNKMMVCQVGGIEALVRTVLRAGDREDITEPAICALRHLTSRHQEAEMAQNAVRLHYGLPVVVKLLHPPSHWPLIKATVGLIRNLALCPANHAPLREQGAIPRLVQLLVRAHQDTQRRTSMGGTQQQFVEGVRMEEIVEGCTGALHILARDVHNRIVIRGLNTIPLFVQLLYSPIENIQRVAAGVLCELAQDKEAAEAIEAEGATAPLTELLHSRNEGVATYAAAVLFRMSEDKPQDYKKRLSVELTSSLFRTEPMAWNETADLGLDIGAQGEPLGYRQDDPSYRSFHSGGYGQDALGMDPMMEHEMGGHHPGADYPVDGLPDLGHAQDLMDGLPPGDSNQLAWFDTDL
The target in test [2] is Bcat-Halo (UniProt P35222). Nature of the test: NanoBRET in HEK293 cells, Bcat-Halo / TCF4-Luc; peptide at 10 uM; competitor TCF4-Luc. Background: In BRET a luciferase serves as donor, and the signal depends on an acceptor being close.
In test [3] the target is full-length beta-Catenin (Uniprot ID P35222) (Homo sapiens (Human)) (UniProt P35222). Kind of test: fluorescence polarization competition; full-length beta-catenin; competitor displaced: 5FAM-TCF4 10-53. (Fluorescence polarisation rises when a labelled molecule tumbles more slowly, as on binding a larger partner.)
Target sequence in this assay (P35222 2-781 limits assumed): as above
Test [4] has the same target. Kind of test: fluorescence polarization competition, peptide titrated against full-length beta-catenin + 5FAM-TCF4(10-53).
Target sequence in this assay (P35222 2-781 limits assumed): as above
For test [5] the target is unchanged. Kind of test: fluorescence polarization competition; 5FAM-TCF4 10-53 probe on full-length beta-catenin.
Target sequence in this assay (P35222 whole entry, the tested form may be a part): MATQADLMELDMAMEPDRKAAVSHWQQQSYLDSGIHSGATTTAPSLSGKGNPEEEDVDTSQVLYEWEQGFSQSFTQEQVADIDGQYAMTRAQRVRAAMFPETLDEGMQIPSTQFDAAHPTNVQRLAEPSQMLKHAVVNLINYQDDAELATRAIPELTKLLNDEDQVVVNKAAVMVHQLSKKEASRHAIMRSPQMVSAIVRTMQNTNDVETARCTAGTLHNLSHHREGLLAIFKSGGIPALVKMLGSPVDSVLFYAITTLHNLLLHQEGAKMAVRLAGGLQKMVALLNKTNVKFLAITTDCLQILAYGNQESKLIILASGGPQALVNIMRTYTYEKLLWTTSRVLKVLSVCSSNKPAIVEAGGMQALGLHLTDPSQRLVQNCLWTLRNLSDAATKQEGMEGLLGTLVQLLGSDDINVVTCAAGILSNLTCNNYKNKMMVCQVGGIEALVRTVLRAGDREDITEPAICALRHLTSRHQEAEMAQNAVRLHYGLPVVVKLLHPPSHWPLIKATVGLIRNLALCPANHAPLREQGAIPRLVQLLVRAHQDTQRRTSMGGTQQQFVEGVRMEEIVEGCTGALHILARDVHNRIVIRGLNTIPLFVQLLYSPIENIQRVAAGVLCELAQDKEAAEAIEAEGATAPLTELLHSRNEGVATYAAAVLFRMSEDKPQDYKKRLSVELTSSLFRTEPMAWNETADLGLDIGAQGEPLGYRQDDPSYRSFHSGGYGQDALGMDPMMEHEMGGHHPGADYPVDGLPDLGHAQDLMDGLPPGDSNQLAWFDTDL
Test [6] concerns the target beta-catenin (full-length, Uniprot ID P35222) (Homo sapiens (Human)) (UniProt P35222). Kind of test: fluorescence polarization competition; full-length beta-catenin; competitor 5FAM-TCF4(10-53) probe.
Target sequence in this assay (P35222 whole entry, one chain of several): as the sequence (P35222 whole entry, the tested form may be a part) above
Test [7] has as its target full-length beta-Catenin (Uniprot ID P35222) (Homo sapiens (Human)) (UniProt P35222). Nature of the test: AlphaScreen competition vs biotin-TCF4(10-53) on full-length beta-catenin. (In Alpha technology, singlet oxygen from a donor bead excites a nearby acceptor bead.)
Target sequence in this assay (P35222 whole entry, the tested form may be a part): as above
Test [8] has the same target. Kind of test: FP competition vs 5FAM-TCF4(10-53) probe on full-length beta-catenin.
Target sequence in this assay (P35222 whole entry, the tested form may be a part): as above
Test [9] has the same target. Kind of test: fluorescence polarization competition; 10 nM full-length beta-catenin + 10 nM 5FAM-TCF4(10-53) as competitor probe; peptide titrated (top concentration 10 uM).
Target sequence in this assay (P35222 2-781 limits assumed): as the sequence (P35222 2-781 limits assumed) above
Test [10] shares this target. Nature of the test: fluorescence polarization competition, full-length beta-catenin with 5FAM-TCF4(10-53) probe as competitor.
Target sequence in this assay (P35222 2-781 limits assumed): as above
Test [11] has the same target. Nature of the test: fluorescence polarization competition; full-length beta-catenin, competitor 5FAM-TCF4(10-53) probe.
Test [12] concerns the target Bcat-Halo (UniProt P35222). Nature of the test: NanoBRET Abs IC50 in HEK293 cells; Bcat-Halo, competitor TCF4-Luc.
In test [13] the target is full-length beta-Catenin (Uniprot ID P35222) (Homo sapiens (Human)) (UniProt P35222). Kind of test: FP competition; full-length beta-catenin, competitor 5FAM-TCF4(10-53).
Target sequence in this assay (P35222 whole entry, the tested form may be a part): as the sequence (P35222 whole entry, the tested form may be a part) above
Test [14] shares this target. Kind of test: fluorescence polarization competition; full-length beta-catenin + 5FAM-TCF4 10-53 probe, peptide titrated.
Target sequence in this assay (P35222 2-781 limits assumed): as the sequence (P35222 2-781 limits assumed) above
Test [15] concerns the target Bcat-Halo (UniProt P35222). Nature of the test: NanoBRET in HEK293 cells, Bcat-Halo / TCF4-Luc; absolute IC50.
For test [16], the target named is beta-catenin (full-length, Uniprot ID P35222) (Homo sapiens (Human)) (UniProt P35222). Nature of the test: fluorescence polarization competition, displacement of 5FAM-TCF4 10-53 from full-length beta-catenin.
Target sequence in this assay (P35222 2-781 limits assumed): as above
Test [17] concerns the target full-length beta-Catenin (Uniprot ID P35222) (Homo sapiens (Human)) (UniProt P35222). Nature of the test: fluorescence polarization competition; 10 nM full-length beta-catenin; competitor 5FAM-TCF4 10-53 probe.
Target sequence in this assay (P35222 whole entry, the tested form may be a part): as the sequence (P35222 whole entry, the tested form may be a part) above
Test [18] addresses Bcat-Halo (UniProt P35222). Kind of test: NanoBRET Abs IC50 (absolute IC50) in HEK293 cells, Bcat-Halo / TCF4-Luc engagement.
Test [19] addresses full-length beta-Catenin (Uniprot ID P35222) (Homo sapiens (Human)) (UniProt P35222). Nature of the test: fluorescence polarization competition, full-length beta-catenin with 5FAM-TCF4(10-53) probe.
Test [20] has the same target. Kind of test: fluorescence polarization competition; peptide titrated against full-length beta-catenin + 5FAM-TCF4(10-53) probe.
Test [21] has the same target. Nature of the test: fluorescence polarization competition vs 5FAM-TCF4(10-53) on full-length beta-catenin.
Target sequence in this assay (P35222 whole entry, the tested form may be a part): as above
The target of test [22] is Bcat-Halo (UniProt P35222). Kind of test: NanoBRET in HEK293 cells, Bcat-Halo/TCF4-Luc (competitor TCF4-Luc); percent inhibition at 10 uM peptide.
For test [23], the target named is full-length beta-Catenin (Uniprot ID P35222) (Homo sapiens (Human)) (UniProt P35222). Nature of the test: fluorescence polarization competition; peptide displaces 5FAM-TCF4(10-53) from full-length beta-catenin.
Test [24] addresses Bcat-Halo (UniProt P35222). Nature of the test: NanoBRET in HEK293 cells, Bcat-Halo/TCF4-Luc (competitor TCF4-Luc); IC50.
Test [25] addresses Bcat-Halo (beta-catenin HaloTag construct expressed in HEK293 cells) (UniProt P35222). Nature of the test: NanoBRET in HEK293 cells, percent inhibition at 10 uM peptide; Bcat-Halo with TCF4-Luc as competitor.
Test [26] concerns the target full-length beta-Catenin (Uniprot ID P35222) (Homo sapiens (Human)) (UniProt P35222). Kind of test: fluorescence polarization competition; displacement of 5FAM-TCF4(10-53) from full-length beta-catenin.
Test [27] has the same target. Nature of the test: fluorescence polarization competition; 10 nM full-length beta-catenin with 10 nM 5FAM-TCF4 (residues 10-53) probe as competitor.
Test [28] addresses Bcat-Halo (UniProt P35222). Nature of the test: NanoBRET Abs IC50; HEK293 cells transfected with B-cat-Halo and TCF4-Luc.
Test [29] addresses full-length beta-Catenin (Uniprot ID P35222) (Homo sapiens (Human)) (UniProt P35222). Kind of test: fluorescence polarization competition; full-length beta-catenin, 5FAM-TCF4(10-53) probe.
For test [30], the target named is Bcat-Halo (UniProt P35222). Nature of the test: NanoBRET Abs IC50; Bcat-Halo/TCF4-Luc engagement in HEK293 cells.
For test [31], the target named is full-length beta-Catenin (Uniprot ID P35222) (Homo sapiens (Human)) (UniProt P35222). Nature of the test: AlphaScreen competition; full-length beta-catenin with biotin-TCF4(10-53) probe as competitor.

Starred links: 1 amine or outer side, 2 acyl side, 3 side chain; linkers in the order of their positions; H or OH if unused. Positions of bridges follow the written chain, without caps; N, C: chain ends. Non-standard residues stand in square brackets, D forms with d. Primed or numbered codes have the meaning given here. PyrS2″ = (S)-3-amino-1-((pent-4-en-1-yloxy)carbonyl)pyrrolidine-3-carboxylic acid (stapling residue), C=CCCCOC(=O)N1CC[C@@](N[*:1])(C(=O)[*:2])C1; B5(4) = 2,2-bis(4-pentenyl)glycine = 2-amino-2-(pent-4-en-1-yl)hept-6-enoic acid (stitching residue), C=CCCCC(CCCC=C)(N[*:1])C(=O)[*:2]; B5(8) = 2,2-bis(4-pentenyl)glycine (2-amino-2-(pent-4-en-1-yl)hept-6-enoic acid, stitching residue), C=CCCCC(CCCC=C)(N[*:1])C(=O)[*:2]; TfeGA = (S)-2-amino-3-((carboxymethyl)(2,2,2-trifluoroethyl)amino)propanoic acid, O=C([C@H](CN(CC(=O)[*:3])CC(F)(F)F)N[*:1])[*:2]; PyrS2 = (S)-3-amino-1-((pent-4-en-1-yloxy)carbonyl)pyrrolidine-3-carboxylic acid, C=CCCCOC(=O)N1CC[C@@](N[*:1])(C(=O)[*:2])C1; PyrS3 = (S)-3-amino-1-((hex-5-en-1-yloxy)carbonyl)pyrrolidine-3-carboxylic acid, C=CCCCCOC(=O)N1CC[C@@](N[*:1])(C(=O)[*:2])C1; B5(12) = 2-amino-2-(pent-4-en-1-yl)hept-6-enoic acid (two olefin side chains), C=CCCCC(CCCC=C)(N[*:1])C(=O)[*:2]; B5(13) = 2-amino-2-(pent-4-en-1-yl)hept-6-enoic acid (two alkene chains), C=CCCCC(CCCC=C)(N[*:1])C(=O)[*:2]; B5(3) = 2,2-bis(4-pentenyl)glycine (stitching residue), C=CCCCC(CCCC=C)(N[*:1])C(=O)[*:2]; B5 = 2-amino-2-(pent-4-en-1-yl)hept-6-enoic acid, C=CCCCC(CCCC=C)(N[*:1])C(=O)[*:2]; Phe(4-COOH) = N[C@@H](Cc1ccc(C(=O)O)cc1)C(=O)O; Phe(2-Cl) = N[C@@H](Cc1ccccc1Cl)C(=O)O; 2Nal = N[C@@H](Cc1ccc2ccccc2c1)C(=O)O; Bta = N[C@@H](Cc1csc2ccccc12)C(=O)O; αAllylPro = C=CC[C@@]1(C(=O)O)CCCN1; tBuAla = CC(C)(C)C[C@H](N)C(=O)O; 3Thi = N[C@@H](Cc1ccsc1)C(=O)O; S8 = C=CCCCCCC[C@](C)(N)C(=O)O; hSer = N[C@@H](CCO)C(=O)O

Bcat-Halo, sequence (P35222 whole entry): as the sequence (P35222 whole entry, the tested form may be a part) above
Bcat-Halo (beta-catenin HaloTag construct expressed in HEK293 cells), sequence (P35222 whole entry): as the sequence (P35222 whole entry, the tested form may be a part) above

In general, EC50 refers to the concentration giving half of the maximal effect. As a reminder, the IC50 is the midpoint of a concentration-inhibition curve. In the case of Ac-[αAllylPro]DL[B5(8)]DDAAFN[PyrS2″][3Thi][Bta]H-NH2 (staple 1-4, 4-11) [I-696], the EC50 in test [1] worked out at 5 nM. In [2], the NanoBRET % inh @ 10 uM amounted to 17%. The concentration for half-maximal inhibition (IC50) in test [3] is 5 nM.
Turning to Ac-[αAllylPro]D[tBuAla][B5]DDAAFN[PyrS2″][3Thi][Bta][dT]-NH2 (staple 1-4, 4-11) [I-817], the EC50 in [4] was found to be 10 nM. The same molecule displayed an IC50 in [5] of 10 nM.
For Ac-[αAllylPro]DA[B5(4)]D[2Nal]AAFQ[S8]F[Bta]Q-NH2 (staple 1-4, 4-11) [I-295], the IC50 in test [6] turned out to be 5000 nM. The EC50 was determined as 1180 nM in test [7] and 5000 nM in test [8].
For the molecule Ac-[αAllylPro]D[tBuAla][B5(4)]NTAAFF[PyrS2″][3Thi][Bta]Q-NH2 (staple 1-4, 4-11) [I-1740], the IC50 in test [9] is 10000 nM.
Regarding Ac-[αAllylPro]D[tBuAla][B5(4)]DEAAFN[S8]F[Bta]Q-NH2 (staple 1-4, 4-11) [I-677], in test [10], the EC50 came to 22 nM. Further, the IC50 in test [11] turned out to be 22 nM; in test [12], 6700 nM.
In test [13], Ac-[αAllylPro]D[tBuAla][B5(4)]DDAAF[hSer][S8]F[Bta]Q-NH2 (staple 1-4, 4-11) [I-1388] returned an EC50 of 18 nM. Also, the IC50 in test [14] came out at 18 nM; in [15], 11300 nM.
As to Ac-[αAllylPro]DA[B5(4)]D[TfeGA]AAFV[S8]F[Bta]Q-NH2 (staple 1-4, 4-11) [I-293: Ac-PL3-Asp-Ala-B5-Asp-TfeGA-Ala-Ala-Phe-Val-S8-Phe-BztA-Gln-NH2], the IC50 in test [16] is 140 nM.
In the case of Ac-[αAllylPro]D[tBuAla][B5(3)]D[TfeGA]AAFF[PyrS2″][Phe(2-Cl)][Bta]Q-NH2 (staple 1-4, 4-11) [I-923], the IC50 was determined as 27 nM in [17] and 6000 nM in test [18]. For the same molecule, in [19], the EC50 is 27 nM.
Consider Ac-[αAllylPro]DA[B5(4)]D[TfeGA]AAFV[S8]F[Bta]Q-NH2 (staple 1-4, 4-11) [I-293], for which the EC50 stood at 41 nM in [7] and 140 nM in test [8].
Turning to Ac-[αAllylPro]DA[B5(4)]DDAAFV[S8][Phe(4-COOH)][Bta]Q-NH2 (staple 1-4, 4-11; also: earlier-eluting staple isomer) [I-339], the EC50 in test [20] was 5000 nM. The molecule also displayed an IC50 in test [21] of 5000 nM.
For Ac-[αAllylPro]D[tBuAla][B5(13)]DDAAFN[PyrS2]F[Bta]H-NH2 (staple 1-4, 4-11) [I-777], in [22], the NanoBRET % inh @ 10 uM amounted to 24.5%. The same molecule came in with an EC50 in [11] of 5 nM. Further, the results for the IC50 in [23] and in test [24] were 5 nM and 14400 nM, respectively.
In the case of Ac-[αAllylPro]DA[B5(4)]DDAAFV[S8][Phe(4-COOH)][Bta]Q-NH2 (staple 1-4, 4-11; also: later-eluting staple isomer) [I-340], the EC50 in [20] was determined as 5000 nM. In [21], this molecule showed an IC50 of 5000 nM.
Ac-[αAllylPro]D[tBuAla][B5(4)]DLAAFN[PyrS2][3Thi][Bta]Q-NH2 (staple 1-4, 4-11) [I-846]: the NanoBRET % inh @ 10 uM in test [25] came to 4.3%. This molecule also showed an IC50 in test [26] of 56 nM. Moreover, the EC50 in [27] was determined as 35 nM.
In the case of Ac-[αAllylPro]D[tBuAla][B5(8)]DDAAFN[PyrS2″][3Thi][Bta]H-NH2 (staple 1-4, 4-11) [I-694], in [1], the EC50 was 5 nM. For the same molecule, in [2], the NanoBRET % inh @ 10 uM stood at 32.7%. For the same molecule, in [3], the 50% inhibitory concentration (IC50) worked out at 5 nM.
On to Ac-[αAllylPro]D[tBuAla][B5]NTAAFN[PyrS2][3Thi][Bta]A-NH2 (staple 1-4, 4-11; also: earlier eluting HPLC isomer) [I-2142], for which the results for the IC50 in [28] and in test [29] were above 20000 nM and 271 nM, respectively.
Ac-[αAllylPro]D[tBuAla][B5]DDAAFN[PyrS2″][3Thi][Bta][dN]-NH2 (staple 1-4, 4-11) [I-818]: the EC50 in test [4] stood at 6 nM. In addition, the IC50 in test [30] worked out at 15000 nM; in [5], 6 nM.
Turning to Ac-[αAllylPro]DA[B5(12)]DEAAFV[S8]F[2Nal]-NH2 (staple 1-4, 4-11) [I-141], in test [31], the EC50 was 5450 nM.
Consider Ac-[αAllylPro]D[tBuAla][B5(13)]DDAAFN[PyrS3][3Thi][Bta]H-NH2 (staple 1-4, 4-11) [I-775], for which the NanoBRET % inh @ 10 uM in test [22] stood at 5.1%. For the same molecule, the EC50 in test [11] stood at 7 nM. The molecule further had an IC50 in test [23] of 6 nM.
Ac-[αAllylPro]D[tBuAla][B5(3)]D[TfeGA]AAFF[S8][Phe(2-Cl)][Bta]Q-NH2 (staple 1-4, 4-11) [I-931] displayed an IC50 in [29] of 221 nM. The same molecule displayed an EC50 in [19] of 221 nM.
